# Experimental data: article doi:10.1101/2022.01.19.476998 (bioRxiv, 2022)
# B1: Cilgavimab (antibody, V domains shown)
# VH: EVQLVESGGGLVKPGGSLRLSCAASGFTFRDVWMSWVRQAPGKGLEWVGRIKSKIDGGTTDYAAPVKGRFTISRDDSKNTLYLQMNSLKTEDTAVYYCTTAGSYYYDTVGPGLPEGKFDYWGQGTLVTVSS
# VL: not shown
# Target: SARS-CoV-2 Spike S1 (Omicron) (SARS-CoV-2 Omicron B.1.1.529 (BA.1), strain)
# Assay: SPR
binder,measurement,value
B1,binding result,binds
